Tests used:
[1] = molecular target: biotin-labeled surface proteins from THP-1 cells; assay: SPR; Biacore 3000; biotin-labeled surface proteins from THP-1 cells (3.2 kRU) or human monocytes (2.3 kRU) captured on a SA chip; 25 nM S100A8, S100A9 or S100A8/S100A9 injected 3 min at 20 uL/min in HBS-P with 1 mM Ca and 20 uM Zn; fit to a 1:1 model
[2] = molecular target: biotin-labeled surface proteins from human monocytes; assay: as above

Kd [1]: 3.3 nM
Kd [2]: 2.3 nM
B1: S100A9 (recombinant human S100A9, produced at Active Biotech AB) (natural protein)
chain: MTCKMSQLERNIETIINTFHQYSVKLGHPDTLNQGEFKELVRKDLQNFLKKENKNEKVIEHIMEDLDTNADKQLSFEEFIMLMARLTWASHEKMHEGDEGPGHHHKPGLGEGTP
